The values that follow come from patent US20120083519.

The test system of series [1] is C-mip protein (c-maf inducing protein), human, full-length.
Series [2] concerns T1, nephrin (co-expressed in HEK cells).
T1 sequence: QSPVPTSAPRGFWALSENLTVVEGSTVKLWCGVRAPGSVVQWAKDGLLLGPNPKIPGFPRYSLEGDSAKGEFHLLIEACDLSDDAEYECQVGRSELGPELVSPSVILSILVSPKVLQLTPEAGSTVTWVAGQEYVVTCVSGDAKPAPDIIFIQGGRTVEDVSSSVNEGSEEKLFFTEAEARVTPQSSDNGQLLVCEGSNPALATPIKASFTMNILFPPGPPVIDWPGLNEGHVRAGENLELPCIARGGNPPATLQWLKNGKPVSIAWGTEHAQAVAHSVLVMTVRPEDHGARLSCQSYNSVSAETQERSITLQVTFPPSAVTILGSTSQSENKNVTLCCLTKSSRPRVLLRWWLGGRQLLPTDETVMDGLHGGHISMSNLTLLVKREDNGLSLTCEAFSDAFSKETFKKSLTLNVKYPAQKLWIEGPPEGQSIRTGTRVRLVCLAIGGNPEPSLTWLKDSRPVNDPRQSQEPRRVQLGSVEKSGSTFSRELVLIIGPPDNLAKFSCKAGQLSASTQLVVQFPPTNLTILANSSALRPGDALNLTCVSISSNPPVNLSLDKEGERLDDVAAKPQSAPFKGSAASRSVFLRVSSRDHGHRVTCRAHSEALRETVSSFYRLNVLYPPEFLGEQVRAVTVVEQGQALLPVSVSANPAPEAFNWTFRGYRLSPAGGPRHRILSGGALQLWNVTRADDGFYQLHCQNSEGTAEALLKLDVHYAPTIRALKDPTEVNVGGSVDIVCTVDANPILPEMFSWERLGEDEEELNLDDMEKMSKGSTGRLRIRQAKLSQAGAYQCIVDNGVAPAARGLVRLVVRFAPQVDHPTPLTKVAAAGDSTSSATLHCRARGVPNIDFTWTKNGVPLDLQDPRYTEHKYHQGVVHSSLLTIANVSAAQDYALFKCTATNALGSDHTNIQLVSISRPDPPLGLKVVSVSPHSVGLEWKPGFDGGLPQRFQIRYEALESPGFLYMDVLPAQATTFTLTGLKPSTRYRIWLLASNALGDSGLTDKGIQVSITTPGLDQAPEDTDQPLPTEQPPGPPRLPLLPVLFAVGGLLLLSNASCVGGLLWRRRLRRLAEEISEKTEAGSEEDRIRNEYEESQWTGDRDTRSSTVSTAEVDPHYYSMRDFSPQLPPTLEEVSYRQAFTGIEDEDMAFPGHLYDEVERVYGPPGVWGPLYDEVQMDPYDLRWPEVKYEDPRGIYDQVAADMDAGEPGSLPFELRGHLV

C-mip protein (c-maf inducing protein), human, full-length, sequence (chain, as listed by the source): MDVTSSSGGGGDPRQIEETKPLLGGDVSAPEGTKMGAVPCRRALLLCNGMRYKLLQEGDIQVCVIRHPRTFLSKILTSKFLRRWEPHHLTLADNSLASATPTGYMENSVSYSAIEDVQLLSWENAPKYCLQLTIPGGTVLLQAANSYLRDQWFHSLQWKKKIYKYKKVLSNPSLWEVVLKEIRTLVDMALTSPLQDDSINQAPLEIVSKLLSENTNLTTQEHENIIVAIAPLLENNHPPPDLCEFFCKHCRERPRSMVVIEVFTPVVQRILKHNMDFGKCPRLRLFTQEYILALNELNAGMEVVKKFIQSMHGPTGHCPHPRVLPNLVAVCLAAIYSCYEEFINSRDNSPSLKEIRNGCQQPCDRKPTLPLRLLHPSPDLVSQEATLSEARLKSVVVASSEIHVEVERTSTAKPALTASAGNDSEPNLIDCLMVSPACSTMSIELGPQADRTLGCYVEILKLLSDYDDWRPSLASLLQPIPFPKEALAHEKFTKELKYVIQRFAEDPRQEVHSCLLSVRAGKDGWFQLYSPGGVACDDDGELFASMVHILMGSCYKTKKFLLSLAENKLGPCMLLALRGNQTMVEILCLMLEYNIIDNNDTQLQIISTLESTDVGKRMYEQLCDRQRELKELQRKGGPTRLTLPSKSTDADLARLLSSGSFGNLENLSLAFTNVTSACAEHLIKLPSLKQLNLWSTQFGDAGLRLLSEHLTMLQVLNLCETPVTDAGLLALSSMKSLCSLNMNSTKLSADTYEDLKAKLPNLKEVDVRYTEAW

For “Fyn (expressed from Fyn plasmid in HEK 293 cells)”, in series [1], the “phosphorylation of nephrin by Fyn at Y1208” value was “co-expression of c-mip reduced the phosphorylation of nephrin by Fyn at this tyrosine residue”. The “phosphorylation of nephrin at tyrosine residue Y1208” value in series [2] was “Co-expression of nephrin and Fyn induced phosphorylation of nephrin at tyrosine residue Y1208”.
